The target in data set [1] is T1, Eis_Mtb (Mycobacterium tuberculosis, UniProt P9WFK7).
T1 construct: gene eis
As to the kind of experiment: dead-end inhibition kinetics, DTNB acetyltransferase assay, purified enzyme. The data set is classed as biochemical.

Data set [2] relates to CCC(=O)SCCNC(=O)CCNC(=O)[C@H](O)C(C)(C)COP(=O)(O)OP(=O)(O)OC[C@H]1O[C@@H](n2cnc3c(N)ncnc32)[C@H](O)[C@@H]1OP(=O)(O)O. In words: purified protein.
Data set [3] deals with CC(=O)SCCNC(=O)CCNC(=O)[C@H](O)C(C)(C)COP(=O)(O)OP(=O)(O)OC[C@H]1O[C@@H](n2cnc3c(N)ncnc32)[C@H](O)[C@@H]1OP(=O)(O)O. As to the kind of experiment: purified protein. The following applies: acetyl-CoA binding first followed by histamine (ordered sequential mechanism).
The test system of data set [4] is NCCc1c[nH]cn1. As to the kind of experiment: purified protein.
[5] abbreviates: acetyl-CoA binds after acetyl-CoA to form a precatalytic ternary complex.

Where two headings read alike, the source gives them in different places.

T1 sequence (P9WFK7 2-402): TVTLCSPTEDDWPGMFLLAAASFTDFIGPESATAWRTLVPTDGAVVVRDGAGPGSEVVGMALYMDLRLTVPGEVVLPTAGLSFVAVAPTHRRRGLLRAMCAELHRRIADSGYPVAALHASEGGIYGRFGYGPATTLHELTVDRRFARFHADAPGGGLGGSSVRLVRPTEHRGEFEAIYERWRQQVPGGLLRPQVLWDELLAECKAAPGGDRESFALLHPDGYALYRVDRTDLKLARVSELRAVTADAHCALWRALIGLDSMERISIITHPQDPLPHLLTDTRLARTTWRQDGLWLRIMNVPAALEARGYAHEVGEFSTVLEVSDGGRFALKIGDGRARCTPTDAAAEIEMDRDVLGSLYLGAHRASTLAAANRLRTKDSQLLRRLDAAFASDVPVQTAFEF

In data set [1], `CCCCCCCC/C=C\CCCCCCCC(=O)SCCNC(=O)CCNC(=O)[C@H](O)C(C)(C)COP(=O)(O)OP(=O)(O)OC[C@H]1O[C@@H](n2cnc3c(N)ncnc32)[C@H](O)[C@@H]1OP(=O)(O)O` [oleoyl-CoA] yielded a Ki of 0.268 ± 0.0684 µM.
Regarding `OCCc1ccc(O)cc1` [tyrosol], in data set [1] (read-out: Ki), the Ki worked out at 175 ± 48.7 µM.
In the case of “Eis_Msm (Mycolicibacterium smegmatis MC2 155)”, the Km in data set [2] was determined as 98 ± 23 µM.
As to “Eis_Mtb (Mycobacterium tuberculosis H37Rv)”, the Km result in data set [3] is “(1.2 ± 0.27) × 10^2 μM”; in data set [2], 47 ± 10 µM; in data set [4], “(28 ± 5.2) × 10^2 μM”. Besides, the kcat turned out to be 5.6 ± 0.2 s⁻¹ in data set [3], 0.6 ± 0.1 s⁻¹ in data set [2] and 0.5 ± 0.04 s⁻¹ in data set [4] (setting [5]). The results for the kcat/Km in data set [3], in data set [2] and in data set [4] (setting [5]) were 52000 ± 13000 M⁻¹ s⁻¹, 14000 ± 4000 M⁻¹ s⁻¹ and 170 ± 83 M⁻¹ s⁻¹, respectively.

The record behind these values is paper PMC5799202, “Eis, a novel family of arylalkylamine N-acetyltransferase (EC 2.3.1.87)” (Scientific Reports, 2018).
